Assay results from the supplement of paper PMC5998384.

Legend:
HeLa Kyoto [1] = assay: melting temperature (median over replicates), in situ; higher = more thermally stable
HeLa Kyoto [2] = assay: solubility change mitosis vs G1/S (difference of NP-40 vs SDS log2 ratios) (log2 ratio difference); higher = more soluble in mitosis
HeLa Kyoto [3] = assay: solubility in G1/S (NP-40 vs SDS abundance) (log2 ratio); higher = more soluble; conditions: cell cycle stage: G1/S
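Throughout, for melting temperature (median over replicates), in situ: HeLa Kyoto cells synchronized by double thymidine or nocodazole block, proteins quantified by TMT10plex mass spectrometry, three independent biological replicates.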
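Throughout, for solubility change mitosis vs G1/S (difference of NP-40 vs SDS log2 ratios): synchronized HeLa Kyoto cells (double thymidine block for G1/S, nocodazole release for mitosis), protein amounts in NP-40 versus SDS lysates quantified by mass spectrometry, three biological replicates.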
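Throughout, for solubility in G1/S (NP-40 vs SDS abundance): HeLa Kyoto cells arrested at G1/S by double thymidine block, proteins quantified by TMT10plex mass spectrometry in mild NP-40 versus SDS extracts, three biological replicates.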

| Sequence | melting temperature (HeLa Kyoto [1]; cell cycle stage: G1/S) | melting temperature (HeLa Kyoto [1]; cell cycle stage: mitosis) | solubility change mitosis (log2) (HeLa Kyoto [2]) | solubility in G1/S (log2) (HeLa Kyoto [3]) |
| --- | --- | --- | --- | --- |
| MARGQQKIQSQQKNAKKQAGQKKKQGHDQKAAAKAALIYTCTVCRTQMPDPKTFKQHFESKHPKTPLPPELADVQA [ZNF706] | 57.5 °C | 54.1 °C | 0.171 | -0.28 |
| MPVKKKRKSPGVAAAVAEDGGLKKCKISSYCRSQPPARLISGEEHFSSKKCLAWFYEYAGPDEVVGPEGMEKFCEDIGVEPENIIMLVLAWKLEAESMGFFTKEEWLKGMTSLQCDCTEKLQNKFDFLRSQLNDISSFKNIYRYAFDFARDKDQRSLDIDTAKSMLALLLGRTWPLFSVFYQYLEQSKYRVMNKDQWYNVLEFSRTVHADLSNYDEDGAWPVLLDEFVEWQKVRQTS [DCUN1D5] | – | 47.5 °C | -0.0762 | 0.214 |
| MSLVIRNLQRVIPIRRAPLRSKIEIVRRILGVQKFDLGIICVDNKNIQHINRIYRDRNVPTDVLSFPFHEHLKAGEFPQPDFPDDYNLGDIFLGVEYIFHQCKENEDYNDVLTVTATHGLCHLLGFTHGTEAEWQQMFQKEKAVLDELGRRTGTRLQPLTRGLFGGS [YBEY] | 45.4 °C | 49.7 °C | 0.0965 | -0.21 |
| MISRHLQNNLMSVDPASSQAMELSDVTLIEGVGNEVMVVAGVVVLILALVLAWLSTYVADSGSNQLLGAIVSAGDTSVLHLGHVDHLVAGQGNPEPTELPHPSEGNDEKAEEAGEGRGDSTGEAGAGGGVEPSLEHLLDIQGLPKRQAGAGSSSPEAPLRSEDSTCLPPSPGLITVRLKFLNDTEELAVARPEDTVGALKSKYFPGQESQMKLIYQGRLLQDPARTLRSLNITDNCVIHCHRSPPGSAVPGPSASLAPSATEPPSLGVNVGSLMVPVFVVLLGVVWYFRINYRQFFTAPATVSLVGVTVFFSFLVFGMYGR [TMUB2] | 55 °C | 54 °C | -0.108 | 0.229 |
| MLAYCVQDATVVDVEKRRNPSKHYVYIINVTWSDSTSQTIYRRYSKFFDLQMQLLDKFPIEGGQKDPKQRIIPFLPGKILFRRSHIRDVAVKRLKPIDEYCRALVRLPPHISQCDEVFRFFEARPEDVNPPKEDYGSSKRKSVWLSSWAESPKKDVTGADATAEPMILEQYVVVSNYKKQENSELSLQAGEVVDVIEKNESGWWFVSTSEEQGWVPATYLEAQNGTRDDSDINTSKTGEVSKRRKAHLRRLDRRWTLGGMVNRQHSREEKYVTVQPYTSQSKDEIGFEKGVTVEVIRKNLEGWWYIRYLGKEGWAPASYLKKAKDDLPTRKKNLAGPVEIIGNIMEISNLLNKKASGDKETPPAEGEGHEAPIAKKEISLPILCNASNGSAVGVPDRTVSRLAQGSPAVARIAPQRAQISSPNLRTRPPPRRESSLGFQLPKPPEPPSVEVEYYTIAEFQSCISDGISFRGGQKAEVIDKNSGGWWYVQIGEKEGWAPASYIDKRKKPNLSRRTSTLTRPKVPPPAPPSKPKEAEEGPTGASESQDSPRKLKYEEPEYDIPAFGFDSEPELSEEPVEDRASGERRPAQPHRPSPASSLQRARFKVGESSEDVALEEETIYENEGFRPYAEDTLSARGSSGDSDSPGSSSLSLTRKNSPKSGSPKSSSLLKLKAEKNAQAEMGKNHSSASFSSSITINTTCCSSSSSSSSSLSKTSGDLKPRSASDAGIRGTPKVRAKKDADANAGLTSCPRAKPSVRPKPFLNRAESQSQEKMDISTLRRQLRPTGQLRGGLKGSKSEDSELPPQTASEAPSEGSRRSSSDLITLPATTPPCPTKKEWEGPATSYMTCSAYQKVQDSEISFPAGVEVQVLEKQESGWWYVRFGELEGWAPSHYLVLDENEQPDPSGKELDTVPAKGRQNEGKSDSLEKIERRVQALNTVNQSKKATPPIPSKPPGGFGKTSGTPAVKMRNGVRQVAVRPQSVFVSPPPKDNNLSCALRRNESLTATDGLRGVRRNSSFSTARSAAAEAKGRLAERAASQGSDSPLLPAQRNSIPVSPVRPKPIEKSQFIHNNLKDVYVSIADYEGDEETAGFQEGVSMEVLERNPNGWWYCQILDGVKPFKGWVPSNYLEKKN [SH3PXD2A] | 49.5 °C | 49 °C | 0.1 | 0.0755 |
| MACLSPSQLQKFQQDGFLVLEGFLSAEECVAMQQRIGEIVAEMDVPLHCRTEFSTQEEEQLRAQGSTDYFLSSGDKIRFFFEKGVFDEKGNFLVPPEKSINKIGHALHAHDPVFKSITHSFKVQTLARSLGLQMPVVVQSMYIFKQPHFGGEVSPHQDASFLYTEPLGRVLGVWIAVEDATLENGCLWFIPGSHTSGVSRRMVRAPVGSAPGTSFLGSEPARDNSLFVPTPVQRGALVLIHGEVVHKSKQNLSDRSRQAYTFHLMEASGTTWSPENWLQPTAELPFPQLYT [PHYHD1] | 50.2 °C | 51.2 °C | -0.137 | 0.198 |
| MLDHKDLEAEIHPLKNEERKSQENLGNPSKNEDNVKSAPPQSRLSRCRAAAFFLSLFLCLFVVFVVSFVIPCPDRPASQRMWRIDYSAAVIYDFLAVDDINGDRIQDVLFLYKNTNSSNNFSRSCVDEGFSSPCTFAAAVSGANGSTLWERPVAQDVALVECAVPQPRGSEAPSACILVGRPSSFIAVNLFTGETLWNHSSSFSGNASILSPLLQVPDVDGDGAPDLLVLTQEREEVSGHLYSGSTGHQIGLRGSLGVDGESGFLLHVTRTGAHYILFPCASSLCGCSVKGLYEKVTGSGGPFKSDPHWESMLNATTRRMLSHSSGAVRYLMHVPGNAGADVLLVGSEAFVLLDGQELTPRWTPKAAHVLRKPIFGRYKPDTLAVAVENGTGTDRQILFLDLGTGAVLCSLALPSLPGGPLSASLPTADHRSAFFFWGLHELGSTSETETGEARHSLYMFHPTLPRVLLELANVSTHIVAFDAVLFEPSRHAAYILLTGPADSEAPGLVSVIKHKVRDLVPSSRVVRLGEGGPDSDQAIRDRFSRLRYQSEA [ITFG3] | 57.6 °C | 57.1 °C | 0.0404 | 0.275 |
